Measurements published in patent US20110201077.

Test system: recombinant streptokinase produced with the pET21b expression construct (double-mutant, plasmin-resistant, polyhistidine-tagged)

With recombinant plasmin as the substance, how does the “streptokinase proteolysis followed by Western blot, 1:1 mole ratio (data not shown)” value read?
Its value is “a very stable streptokinase fragment was generated, even at t=18 hours into the reaction”.

With recombinant plasminogen as the substance, how does the “conversion of recombinant plasminogen to recombinant plasmin, time course on reducing SDS-PAGE, 100:1 mole ratio plasminogen:streptokinase” value read?
The value was “At t=18 hours into the reaction, nearly all of the recombinant plasminogen had been converted to recombinant plasmin”.
